Test results reported in patent US20050037449.

Assays:
[1] = target: human BMAL1 expressed in E. coli as an N-terminal GST fusion protein [GST: P08515]
[2] = target: T1, c-Jun (1-79) expressed in E. coli as an N-terminal GST fusion protein, P05412
T1 chain: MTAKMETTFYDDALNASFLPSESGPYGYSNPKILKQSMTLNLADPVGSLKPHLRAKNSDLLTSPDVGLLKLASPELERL

[3] = target: glutathion S-transferase (GST) [GST: P08515]

B1: human JNK1 (Upstate Biotechnology) (protein)
chain: MSRSKRDNNFYSVEIGDSTFTVLKRYQNLKPIGSGAQGIVCAAYDAILERNVAIKKLSRPFQNQTHAKRAYRELVLMKCVNHKNIIGLLNVFTPQKSLEEFQDVYIVMELMDANLCQVIQMELDHERMSYLLYQMLCGIKHLHSAGIIHRDLKPSNIVVKSDCTLKILDFGLARTAGTSFMMTPYVVTRYYRAPEVILGMGYKENVDLWSVGCIMGEMVCHKILFPGRDYIDQWNKVIEQLGTPCPEFMKKLQPTVRTYVENRPKYAGYSFEKLFPDVLFPADSEHNKLKASQARDLLSKMLVIDASKRISVDEALQHPYINVWYDPSEAEAPPPKIPDKQLDEREHTIEEWKELIYKEVMDLEERTKNGVIRGQPSPLAQVQQ
in vitro phosphorylation, JNK1 added instead of JNK3 [1]: substantially not phosphorylated by any of JNK1 and JNK2 (which are members of the JNK family), and ERK2

B2: human JNK2 (Upstate Biotechnology) (protein)
chain: MSDSKCDSQFYSVQVADSTFTVLKRYQQLKPIGSGAQGIVCAAFDTVLGINVAVKKLSRPFQNQTHAKRAYRELVLLKCVNHKNIISLLNVFTPQKTLEEFQDVYLVMELMDANLCQVIHMELDHERMSYLLYQMLCGIKHLHSAGIIHRDLKPSNIVVKSDCTLKILDFGLARTACTNFMMTPYVVTRYYRAPEVILGMGYKENVDIWSVGCIMGELVKGCVIFQGTDHIDQWNKVIEQLGTPSAEFMKKLQPTVRNYVENRPKYPGIKFEELFPDWIFPSESERDKIKTSQARDLLSKMLVIDPDKRISVDEALRHPYITVWYDPAEAEAPPPQIYDAQLEEREHAIEEWKELIYKEVMDWEERSKNGVVKDQPSDAAVSSNATPSQSSSINDISSMSTEQTLASDTDSSLDASTGPLEGCR
in vitro phosphorylation, JNK2 added instead of JNK3 [1]: substantially not phosphorylated by any of JNK1 and JNK2 (which are members of the JNK family), and ERK2

B3: active form of human JNK3 (JNK3 α1) expressed as an N-terminal His-tagged protein (protein)
chain: MSLHFLYYCSEPTLDVKIAFCQGFDKQVDVSYIAKHYNMSKSKVDNQFYSVEVGDSTFTVLKRYQNLKPIGSGAQGIVCAAYDAVLDRNVAIKKLSRPFQNQTHAKRAYRELVLMKCVNHKNIISLLNVFTPQKTLEEFQDVYLVMELMDANLCQVIQMELDHERMSYLLYQMLCGIKHLHSAGIIHRDLKPSNIVVKSDCTLKILDFGLARTAGTSFMMTPYVVTRYYRAPEVILGMGYKENVDIWSVGCIMGEMVRHKILFPGRDYIDQWNKVIEQLGTPCPEFMKKLQPTVRNYVENRPKYAGLTFPKLFPDSLFPADSEHNKLKASQARDLLSKMLVIDPAKRISVDDALQHPYINVWYDPAEVEAPPPQIYDKQLDEREHTIEEWKELIYKEVMNSEEKTKNGVVKGQPSPSAQVQQ
in vitro phosphorylation ([γ-32P]ATP kinase assay, SDS-PAGE, autoradiography) [2]: JNK3 did phosphorylate the GST-c-Jun (1-79) used as a positive control | in vitro phosphorylation ([γ-32P]ATP kinase assay, SDS-PAGE, autoradiography) [3]: did not phosphorylate the GST | in vitro phosphorylation ([γ-32P]ATP kinase assay, SDS-PAGE, autoradiography) [1]: The phosphorylation of GST-BMAL1 was observed in this experimental system | in vitro phosphorylation with 0 ng, 14 ng, 28 ng and 70 ng of active JNK3 [1]: GST-BMAL1 was phosphorylated in a JNK3 dose-dependent manner

B4: mouse ERK2 (New England Biolabs) (protein)
chain: MAAAAAAGPEMVRGQVFDVGPRYTNLSYIGEGAYGMVCSAYDNLNKVRVAIKKISPFEHQTYCQRTLREIKILLRFRHENIIGINDIIRAPTIEQMKDVYIVQDLMETDLYKLLKTQHLSNDHICYFLYQILRGLKYIHSANVLHRDLKPSNLLLNTTCDLKICDFGLARVADPDHDHTGFLTEYVATRWYRAPEIMLNSKGYTKSIDIWSVGCILAEMLSNRPIFPGKHYLDQLNHILGILGSPSQEDLNCIINLKARNYLLSLPHKNKVPWNRLFPNADSKALDLLDKMLTFNPHKRIEVEQALAHPYLEQYYDPSDEPIAEAPFKFDMELDDLPKEKLKELIFEETARFQPGYRS
in vitro phosphorylation, ERK2 added instead of JNK3 [1]: substantially not phosphorylated by any of JNK1 and JNK2 (which are members of the JNK family), and ERK2
